In patent publication US12215133 one finds cAMP experimental result of GIP receptor, EC50 data, which are given here for two substances.

In the test the target is T1, GIP receptor.
T1 sequence (P48546 whole entry, species assumed, looked up): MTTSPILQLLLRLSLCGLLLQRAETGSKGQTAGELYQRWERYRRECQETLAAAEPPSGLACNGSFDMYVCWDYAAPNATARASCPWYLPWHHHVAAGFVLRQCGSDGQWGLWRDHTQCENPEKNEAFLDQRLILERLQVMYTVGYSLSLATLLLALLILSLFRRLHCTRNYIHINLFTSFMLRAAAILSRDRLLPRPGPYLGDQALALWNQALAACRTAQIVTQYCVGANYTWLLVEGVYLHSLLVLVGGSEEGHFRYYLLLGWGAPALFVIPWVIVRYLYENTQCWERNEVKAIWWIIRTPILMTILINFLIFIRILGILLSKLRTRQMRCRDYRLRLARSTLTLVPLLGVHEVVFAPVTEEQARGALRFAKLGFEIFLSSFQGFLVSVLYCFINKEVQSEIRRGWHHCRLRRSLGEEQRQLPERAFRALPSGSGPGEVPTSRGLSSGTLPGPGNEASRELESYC
The test can be described thus: cell-based or functional assay.

A value given as a limit tells only on which side of the number the result lay.

The substance BG121 (LY3298176) (peptide) yielded a cAMP experimental result of GIP receptor, EC50 of 1.79 nM.

Consider BGM134 (Semaglutide) (peptide), for which the cAMP experimental result of GIP receptor, EC50 was more than 50 nM.
